Results from US20220218639A1.

B1: α2-antiplasmin: Circulating serpin that rapidly inhibits plasmin (protein)
chain: NQEQVSPLTLLKLGNQEPGGQTALKSPPGVCSRDPTPEQTHRLARAMMAFTADLFSLVAQTSTCPNLILSPLSVALALSHLALGAQNHTLQRLQQVLHAGSGPCLPHLLSRLCQDLGPGAFRLAARMYLQKGFPIKEDFLEQSEQLFGAKPVSLTGKQEDDLANINQWVKEATEGKIQEFLSGLPEDTVLLLLNAIHFQGFWRNKFDPSLTQRDSFHLDEQFTVPVEMMQARTYPLRWFLLEQPEIQVAHFPFKNNMSFVVLVPTHFEWNVSQVLANLSWDTLHPPLVWERPTKVRLPKLYLKHQMDLVATLSQLGLQELFQAPDLRGISEQSLVVSGVQHQSTLELSEVGVEAAAATSIAMSRMSLSSFSVNRPFLFFIFEDTTGLPLFVGSVRNPNPSAPRELKEQQDSPGNKDFLQSLKGFPRGDKLFGPDLKLVPPMEEDYPQFGSPK
B2: tPA: Tissue plasminogen activator, converts plasminogen into plasmin (protein, UniProt P00750 36-562, looked up)
Tissue-type plasminogen …: SYQVICRDEKTQMIYQQHQSWLRPVLRSNRVEYCWCNSGRAQCHSVPVKSCSEPRCFNGGTCQQALYFSDFVCQCPEGFAGKCCEIDTRATCYEDQGISYRGTWSTAESGAECTNWNSSALAQKPYSGRRPDAIRLGLGNHNYCRNPDRDSKPWCYVFKAGKYSSEFCSTPACSEGNSDCYFGNGSAYRGTHSLTESGASCLPWNSMILIGKVYTAQNPSAQALGLGKHNYCRNPDGDAKPWCHVLKNRRLTWEYCDVPSCSTCGLRQYSQPQFRIKGGLFADIASHPWQAAIFAKHRRSPGERFLCGGILISSCWILSAAHCFQERFPPHHLTVILGRTYRVVPGEEEQKFEVEKYIVHKEFDDDTYDNDIALLQLKSDSSRCAQESSVVRTVCLPPADLQLPDWTECELSGYGKHEALSPFYSERLKEAHVRLYPSSRCTSQHLLNRTVTDNMLCAGDTRSGGPQANLHDACQGDSGGPLVCLNDGRMTLVGIISWGLGCGQKDVPGVYTKVTNYLDWIRDNMRP

Experiments:
plasmin = plasmin (Homo sapiens, UniProt P00747); conditions: binding to the serine in plasmin's active site; cited from earlier work
plasmin, sequence (P00747 581-810 limits assumed): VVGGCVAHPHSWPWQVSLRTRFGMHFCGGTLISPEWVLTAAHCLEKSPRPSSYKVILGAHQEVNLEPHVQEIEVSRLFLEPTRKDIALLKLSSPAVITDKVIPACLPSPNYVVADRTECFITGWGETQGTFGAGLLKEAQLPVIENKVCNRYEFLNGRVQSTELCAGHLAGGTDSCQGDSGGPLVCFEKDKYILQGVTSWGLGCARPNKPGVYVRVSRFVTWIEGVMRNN
plasmin, sequence (P00747 97-580 limits assumed): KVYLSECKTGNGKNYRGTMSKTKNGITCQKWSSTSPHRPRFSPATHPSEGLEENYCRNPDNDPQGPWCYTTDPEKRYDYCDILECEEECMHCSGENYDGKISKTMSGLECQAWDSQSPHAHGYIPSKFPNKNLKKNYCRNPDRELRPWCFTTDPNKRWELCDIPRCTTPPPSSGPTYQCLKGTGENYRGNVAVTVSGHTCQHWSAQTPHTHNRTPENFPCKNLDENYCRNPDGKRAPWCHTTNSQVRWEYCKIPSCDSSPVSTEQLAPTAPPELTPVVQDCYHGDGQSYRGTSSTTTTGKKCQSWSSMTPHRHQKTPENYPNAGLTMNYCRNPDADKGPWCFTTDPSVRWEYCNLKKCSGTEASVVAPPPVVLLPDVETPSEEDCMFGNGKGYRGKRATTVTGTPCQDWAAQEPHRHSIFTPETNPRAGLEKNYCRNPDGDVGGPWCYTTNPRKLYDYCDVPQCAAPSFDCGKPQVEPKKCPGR

preformed blood clots = assay: In-vitro circulating plasma lung model of pulmonary embolism; conditions: circulating human plasma
Experimental: The in-vitro circulating plasma lung model 200 of pulmonary embolism (as shown in FIGS. 22 and 23), consists of a 3-D printed circuit 210, designed to mimic lung vasculature, and in which preformed blood clots of known mass are placed. This “lung” is in fluid connection with a reservoir 220 of approximately 200-250 mL of human plasma, type-matched to the clots, that is recirculated with a peristaltic pump 230, passed through a heating element (not shown), then pumped through the lung itself at a physiological constant pressure. An injection port 240 allows injection of reagents, enzymes or other molecules. After lysis is initiated, the “lung” is circulated for one hour. Clots are weighed before and after completion of the experiment reweighed, to provide for percentage of clot lysis information for each treatment regime.
In this Example, pulmonary embolism was simulated using the in-vitro lung model of Example 13 and the ability of the delivery system of the present disclosure was analyzed for its ability to remove clots.
Particularly, human plasma (200-250 mL), recirculated (37° C.) and loaded with approximately 4 grams type-matched clots was injected into the delivery system. After 1 hour of circulation, the clots were removed and weighed.

Row | Molecule | rate constant of plasmin inhibition (plasmin) | reduction in antiplasmin (α2 AP) (preformed blood clots)
1 | B1 | 4×10^7 M^−1Sec^−1 | –
2 | B2 | – | fully depleted
